From patent US20210032343A1 (BEIJING HANMI PHARMACEUTICAL, published 2021)

Molecular target: recombinant human PD-1 (product No. 10377-H08H, Beijing Yiqiao Shenzhou) (human, UniProt Q15116 25-167)
Test: ELISA, recombinant human PD-1 coated at 1 ug/mL, control antibody, anti-human IgG-HRP detection
Procedure: The coating concentration was 1 μg/mL. The coating amount was 100 μL per well, and the coating was performed at 4° C. overnight. PBST washing was performed five times. The result was sealed at 300 μL/well using PBST containing 1% BSA, and subjected to incubation for 1 hour at 25° C. PBST washing was performed five times. […] PBST washing was performed five times. Subsequently, 100 μL of the horseradish peroxidase-labeled anti-human IgG antibody (product No. AP309P, available from Chemicon) diluted at 1:2,000 in PBST containing 1% BSA was then added to each well, and the cells were incubated for 1 hour at 25° C. PBST washing was performed five times. 100 μL of the colorimetric substrate TMB was added to each well, and color development was allowed to occur for 10 minutes at room temperature. Color development was stopped by adding 100 μL of 1 M H₂SO₄ to each well. The absorbance at 450 nm was read on a microplate reader.

recombinant human PD-1 (product No. 10377-H08H, Beijing Yiqiao Shenzhou), sequence (Q15116 25-167 limits assumed): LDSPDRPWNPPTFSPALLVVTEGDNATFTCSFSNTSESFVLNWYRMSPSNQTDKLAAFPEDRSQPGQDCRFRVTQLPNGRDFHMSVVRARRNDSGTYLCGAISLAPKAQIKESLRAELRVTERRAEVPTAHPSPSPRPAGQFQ

binding result: binds
B1: PD-1 monoclonal antibody (antibody, V domains shown)
VH: QVQLVQSGAEVKKPGSSVKVSCKASGGTFSSTAISWVRQAPGQGLEWMGGIWPSFGTASYAQKFQGRVTITADESTSTAYMELSSLRSEDTAVYYCARAEYSSTGIFDYWGQGTLVTVSS
VL: DIQMTQSPSSVSASVGDRVTITCRASQGISSWLAWYQQKPGKAPKLLISAASSLQSGVPSRFSGSGSGTDFTLTISSLQPEDFATYYCQQANHLPFTFGGGTKVEIK
notes: also called bivalent monoclonal antibody (anti-PD-1)
